Results on 94 variants are retold here after the supplement of paper PMC10567573.

The labels stand for the following.
B1: MLH1 (parent)
chain: YNIATRRKALKNPSEEYGKILEVV
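Further: lentivirally expressed fusions sorted by FACS into six bins by GFP to DsRed ratio, PSI derived from sequencing read proportions per bin multiplied by bin number.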

This data set covers variants of B1. Kind of data set: protein stability index of a GFP-peptide fusion (GPS, HEK-293T) (PSI 1-6); higher = more stable. The following applies: c terminus: a fixed tail appended.
In the case of YNIATRRKALKDPSEEYGKILEVV [N12D], the protein stability index stood at 3.32.

For YNIATRRKALKYPSEEYGKILEVV [N12Y], the protein stability index amounted to 2.53.

Take YNIATRRKALKSPSEEYGKILEVV [N12S]: the protein stability index was 2.76.

Take YNIATRRKALKGPSEEYGKILEVV [N12G]: the protein stability index stood at 2.71.

For the variant YNIATRRKALKEPSEEYGKILEVV [N12E], the protein stability index was 3.35.

For the variant YNIATRRKALKFPSEEYGKILEVV [N12F], the protein stability index came to 1.97.

As for YNIATRRKALKHPSEEYGKILEVV [N12H], the protein stability index was 2.74.

Regarding YNIATRRKALKVPSEEYGKILEVV [N12V], the protein stability index was 1.98.

Consider YNIATRRKALKRPSEEYGKILEVV [N12R], for which the protein stability index stood at 3.3.

For the variant YNIATRRKALKAPSEEYGKILEVV [N12A], the protein stability index was determined as 2.55.

In the case of YNIATRRKALKPPSEEYGKILEVV [N12P], the protein stability index is 3.11.

In the case of YNIATRRKALKWPSEEYGKILEVV [N12W], the protein stability index came out at 1.94.

With YNIATRRKALENPSEEYGKILEVV [K11E], the protein stability index stood at 3.48.

YNIATRRKALSNPSEEYGKILEVV [K11S]: the protein stability index was determined as 2.48.

For the variant YNIATRRKALVNPSEEYGKILEVV [K11V], the protein stability index turned out to be 2.53.

For the variant YNIATRRKALNNPSEEYGKILEVV [K11N], the protein stability index was 2.69.

YNIATRRKALINPSEEYGKILEVV [K11I]: the protein stability index came to 2.04.

Consider YNIATRRKALMNPSEEYGKILEVV [K11M], for which the protein stability index is 2.85.

Regarding YNIATRRKALWNPSEEYGKILEVV [K11W], the protein stability index is 2.19.

With YNIATRRKALFNPSEEYGKILEVV [K11F], the protein stability index is 1.95.

As to YNIATRRKALLNPSEEYGKILEVV [K11L], the protein stability index was 2.43.

YNKATRRKALKNPSEEYGKILEVV [I3K]: the protein stability index was determined as 2.98.

YNAATRRKALKNPSEEYGKILEVV [I3A]: the protein stability index was determined as 3.11.

As to YNQATRRKALKNPSEEYGKILEVV [I3Q], the protein stability index worked out at 3.41.

As to YNFATRRKALKNPSEEYGKILEVV [I3F], the protein stability index stood at 2.85.

Turning to YNRATRRKALKNPSEEYGKILEVV [I3R], the protein stability index came to 2.71.

Regarding YNHATRRKALKNPSEEYGKILEVV [I3H], the protein stability index worked out at 2.69.

For the variant YNSATRRKALKNPSEEYGKILEVV [I3S], the protein stability index came to 3.

As to YNMATRRKALKNPSEEYGKILEVV [I3M], the protein stability index is 3.08.

In the case of YNGATRRKALKNPSEEYGKILEVV [I3G], the protein stability index is 2.97.

In the case of YNPATRRKALKNPSEEYGKILEVV [I3P], the protein stability index is 3.14.

With YNEATRRKALKNPSEEYGKILEVV [I3E], the protein stability index worked out at 2.74.

As for YNNATRRKALKNPSEEYGKILEVV [I3N], the protein stability index was determined as 3.29.

Turning to YNDATRRKALKNPSEEYGKILEVV [I3D], the protein stability index is 3.19.

Regarding YNCATRRKALKNPSEEYGKILEVV [I3C], the protein stability index was 2.69.

Regarding YRIATRRKALKNPSEEYGKILEVV [N2R], the protein stability index was 2.5.

Turning to YGIATRRKALKNPSEEYGKILEVV [N2G], the protein stability index worked out at 2.7.

On to YHIATRRKALKNPSEEYGKILEVV [N2H], for which the protein stability index is 2.07.

As for YCIATRRKALKNPSEEYGKILEVV [N2C], the protein stability index came out at 2.18.

On to YVIATRRKALKNPSEEYGKILEVV [N2V], for which the protein stability index came to 1.87.

With YYIATRRKALKNPSEEYGKILEVV [N2Y], the protein stability index amounted to 2.43.

As to YEIATRRKALKNPSEEYGKILEVV [N2E], the protein stability index was found to be 3.12.

Turning to YMIATRRKALKNPSEEYGKILEVV [N2M], the protein stability index was found to be 1.85.

Regarding YLIATRRKALKNPSEEYGKILEVV [N2L], the protein stability index amounted to 1.9.

As for YFIATRRKALKNPSEEYGKILEVV [N2F], the protein stability index was determined as 1.71.

Consider YQIATRRKALKNPSEEYGKILEVV [N2Q], for which the protein stability index is 2.51.

YTIATRRKALKNPSEEYGKILEVV [N2T]: the protein stability index amounted to 2.45.

On to YDIATRRKALKNPSEEYGKILEVV [N2D], for which the protein stability index is 3.14.

Take YNIATRRKALKNKSEEYGKILEVV [P13K]: the protein stability index was found to be 3.19.

With YNIATRRKALKNWSEEYGKILEVV [P13W], the protein stability index worked out at 2.66.

As to YNIATRRKALKNCSEEYGKILEVV [P13C], the protein stability index is 3.26.

As for YNIATRRKALKNFSEEYGKILEVV [P13F], the protein stability index was 1.96.

For the variant YNIATRRKALKNHSEEYGKILEVV [P13H], the protein stability index is 2.94.

Take YNIATRRKALKNRSEEYGKILEVV [P13R]: the protein stability index came to 2.78.

In the case of YNIATRRKALKNISEEYGKILEVV [P13I], the protein stability index was 2.15.

In the case of YNIATRRKALKNSSEEYGKILEVV [P13S], the protein stability index was determined as 3.05.

Consider YNIATRRKALKNMSEEYGKILEVV [P13M], for which the protein stability index is 2.27.

YNIATRRKALKNYSEEYGKILEVV [P13Y]: the protein stability index turned out to be 2.59.

As for YNIATRRKALKNNSEEYGKILEVV [P13N], the protein stability index is 2.99.

With YNIATRRKALKNTSEEYGKILEVV [P13T], the protein stability index was 2.89.

Consider YNIATRRKAAKNPSEEYGKILEVV [L10A], for which the protein stability index turned out to be 3.09.

As to YNIATRRKAFKNPSEEYGKILEVV [L10F], the protein stability index worked out at 3.02.

Turning to YNIATRRKATKNPSEEYGKILEVV [L10T], the protein stability index was 3.14.

As to YNIATRRKAPKNPSEEYGKILEVV [L10P], the protein stability index came out at 3.23.

Take YNIATRRKAEKNPSEEYGKILEVV [L10E]: the protein stability index was 3.53.

Consider YNIATRRKAKKNPSEEYGKILEVV [L10K], for which the protein stability index came out at 3.31.

As for YNIATRRKAIKNPSEEYGKILEVV [L10I], the protein stability index was 3.22.

On to YNIATRRKAHKNPSEEYGKILEVV [L10H], for which the protein stability index came out at 3.

Regarding YNIATRRKAVKNPSEEYGKILEVV [L10V], the protein stability index worked out at 3.07.

Take YNIATRRKAGKNPSEEYGKILEVV [L10G]: the protein stability index was found to be 2.99.

Regarding YNIATRRKARKNPSEEYGKILEVV [L10R], the protein stability index turned out to be 3.13.

Consider YNIATRRKACKNPSEEYGKILEVV [L10C], for which the protein stability index came out at 2.84.

With YNIATRRKAMKNPSEEYGKILEVV [L10M], the protein stability index was determined as 2.86.

For the variant YNIATYRKALKNPSEEYGKILEVV [R6Y], the protein stability index came out at 1.76.

For the variant YNIATGRKALKNPSEEYGKILEVV [R6G], the protein stability index was found to be 2.76.

With YNIATCRKALKNPSEEYGKILEVV [R6C], the protein stability index was found to be 1.89.

In the case of YNIATQRKALKNPSEEYGKILEVV [R6Q], the protein stability index was determined as 2.82.

In the case of YNIATWRKALKNPSEEYGKILEVV [R6W], the protein stability index was determined as 1.96.

As to YNIATNRKALKNPSEEYGKILEVV [R6N], the protein stability index was determined as 2.85.

On to YNIATVRKALKNPSEEYGKILEVV [R6V], for which the protein stability index is 2.1.

Regarding YNIATTRKALKNPSEEYGKILEVV [R6T], the protein stability index worked out at 2.32.

YNIATLRKALKNPSEEYGKILEVV [R6L]: the protein stability index turned out to be 1.79.

With YNIATKRKALKNPSEEYGKILEVV [R6K], the protein stability index came out at 2.99.

As for YNIATSRKALKNPSEEYGKILEVV [R6S], the protein stability index was 2.7.

On to YNIATDRKALKNPSEEYGKILEVV [R6D], for which the protein stability index turned out to be 3.69.

In the case of YNIATPRKALKNPSEEYGKILEVV [R6P], the protein stability index turned out to be 3.15.

Turning to YNIATRRKSLKNPSEEYGKILEVV [A9S], the protein stability index is 2.93.

On to YNIATRRKWLKNPSEEYGKILEVV [A9W], for which the protein stability index came out at 2.75.

Consider YNIATRRKYLKNPSEEYGKILEVV [A9Y], for which the protein stability index was 2.09.

As to YNIATRRKQLKNPSEEYGKILEVV [A9Q], the protein stability index turned out to be 2.55.

For YNIATRRKVLKNPSEEYGKILEVV [A9V], the protein stability index is 2.55.

Regarding YNIATRRKELKNPSEEYGKILEVV [A9E], the protein stability index came out at 2.99.

As for YNIATRRKLLKNPSEEYGKILEVV [A9L], the protein stability index is 2.17.

Regarding YNIATRRKDLKNPSEEYGKILEVV [A9D], the protein stability index was found to be 3.2.
